{"source": "patent US20130344055A1", "about": "“ANTIMICROBIAL AGENTS” (priority 2010, published 2013)", "molecules": {"B1": {"name": "STM0016-LL37: STM0016 fusion variant with one peptide stretch, LL37 (protein)", "chain": "MNPIIDGIIALEGGYVFNPKDKGGATHWGITEATARAHGYAGDMRDLTHAEAYAILEEDYWIKPGFDVISTLSWPVSFELCDAAVNIGAYHPSAWLQRWLNVFNHEGKRYPDIHVDGNIGPRTLAALEHYLAWRGQEGEAVLVKALNCSQGTYYLNVAEKNHNNEQFIYGWIKNRVTLLGDFFRKSKEKIGKEFKRIVQRIKDFLRNLVPRTES"}, "B2": {"name": "P1y511-Magainin: Ply511 fusion variant with one peptide stretch, Magainin (protein)", "chain": "MVKYTVENKIIAGLPKGKLKGANFVIAHETANSKSTIDNEVSYMTRNWKNAFVTHFVGGGGRVVQVANVNYVSWGAGQYANSYSYAQVELCRTSNATTFKKDYEVYCQLLVDLAKKAGIPITLDSGSKTSDKGIKSHKWVADKLGGTTHQDPYAYLSSWGISKAQFASDLAKVSGGGNTGTAPAKPSTPAPKPSTPSTNLDKLGLVDYMNAKKMDSSYSNRDKLAKQYGIANYSGTASQNTTLLSKIKGGAPKPSTPAPKPSTSTAKKIYFPPNKGNWSVYPTNKAPVKANAIGAINPTKFGGLTYTIQKDRGNGVYEIQTDQFGRVQVYGAPSTGAVIKKGIGKFLHSAKKFGKAFVGEIMNS"}, "B3": {"name": "Cpl1-Pseudin1-Indolicidin: Cpl1 with Pseudin1 C-terminal of the enzyme, followed by Indolicidin (protein)", "chain": "MVKKNDLFVDVSSHNGYDITGILEQMGTTNTIIKISESTTYLNPCLSAQVEQSNPIGFYHFARFGGDVAEAEREAQFFLDNVPMQVKYLVLDYEDDPSGDAQANTNACLRFMQMIADAGYKPIYYSYKPFTHDNVDYQQILAQFPNSLWIAGYGLNDGTANFEYFPSMDGIRWWQYSSNPFDKNIVLLDDEEDDKPKTAGTWKQDSKGWWFRRNNGSFPYNKWEKIGGVWYYFDSKGYCLTSEWLKDNEKWYYLKDNGAMATGWVLVGSEWYYMDDSGAMVTGWVKYKNNWYYMTNERGNMVSNEFIKSGKGWYFMNTNGELADNPSFTKEPDGLITVAGLNTLKKVFQGLHEAIKLINNHVQILPWKWPWWPWRR"}, "B4": {"name": "P1y511-BuforinII: Ply511 fusion variant with one peptide stretch, Buforin II (protein)", "chain": "MVKYTVENKIIAGLPKGKLKGANFVIAHETANSKSTIDNEVSYMTRNWKNAFVTHFVGGGGRVVQVANVNYVSWGAGQYANSYSYAQVELCRTSNATTFKKDYEVYCQLLVDLAKKAGIPITLDSGSKTSDKGIKSHKWVADKLGGTTHQDPYAYLSSWGISKAQFASDLAKVSGGGNTGTAPAKPSTPAPKPSTPSTNLDKLGLVDYMNAKKMDSSYSNRDKLAKQYGIANYSGTASQNTTLLSKIKGGAPKPSTPAPKPSTSTAKKIYFPPNKGNWSVYPTNKAPVKANAIGAINPTKFGGLTYTIQKDRGNGVYEIQTDQFGRVQVYGAPSTGAVIKKTRSSRAGLQFPVGRVHRLLRK"}, "B5": {"name": "P1y511: endolysin Ply511 (protein)", "chain": "MVKYTVENKIIAGLPKGKLKGANFVIAHETANSKSTIDNEVSYMTRNWKNAFVTHFVGGGGRVVQVANVNYVSWGAGQYANSYSYAQVELCRTSNATTFKKDYEVYCQLLVDLAKKAGIPITLDSGSKTSDKGIKSHKWVADKLGGTTHQDPYAYLSSWGISKAQFASDLAKVSGGGNTGTAPAKPSTPAPKPSTPSTNLDKLGLVDYMNAKKMDSSYSNRDKLAKQYGIANYSGTASQNTTLLSKIKGGAPKPSTPAPKPSTSTAKKIYFPPNKGNWSVYPTNKAPVKANAIGAINPTKFGGLTYTIQKDRGNGVYEIQTDQFGRVQVYGAPSTGAVIKK", "modifications": "Listeria monocytogenes Phage A511", "notes": "endolysin Ply511"}, "B6": {"name": "P1y511-BuforinII-Magainin: Ply511 with Buforin II C-terminal of the enzyme, followed by Magainin (protein)", "chain": "MVKYTVENKIIAGLPKGKLKGANFVIAHETANSKSTIDNEVSYMTRNWKNAFVTHFVGGGGRVVQVANVNYVSWGAGQYANSYSYAQVELCRTSNATTFKKDYEVYCQLLVDLAKKAGIPITLDSGSKTSDKGIKSHKWVADKLGGTTHQDPYAYLSSWGISKAQFASDLAKVSGGGNTGTAPAKPSTPAPKPSTPSTNLDKLGLVDYMNAKKMDSSYSNRDKLAKQYGIANYSGTASQNTTLLSKIKGGAPKPSTPAPKPSTSTAKKIYFPPNKGNWSVYPTNKAPVKANAIGAINPTKFGGLTYTIQKDRGNGVYEIQTDQFGRVQVYGAPSTGAVIKKTRSSRAGLQFPVGRVHRLLRKGIGKFLHSAKKFGKAFVGEIMNS"}}, "key": {"[1]": {"test_system": "P. aeruginosa PAO1p cells", "assay": "Antimicrobial activity of different peptide stretches", "conditions": "30 minutes at room temperature; for Antimicrobial effects against P. aeruginosa (relative inactivation): peptide at 3 μM/L (equimolar to AMP)", "procedure": "The bacteria colonies on the agar plates were counted after an overnight incubation at 37° C. Based on the counted cell numbers the antibacterial activity as the relative inactivation in logarithmic units (=log 10N0/Ni with N0=number of untreated cells (of the control) and Ni=number of treated cells, both counted after incubation) is calculated. The reduction in the number of bacteria colonies after treatment with a peptide stretch is indicative for an antimicrobial activity of the peptide stretch, because the bacterial cells are lysed due to the treatment with the peptide stretch. All samples were replicated in four fold."}, "[2]": {"test_system": "Salmonella bacteria", "assay": "In vitro antibacterial activity of STM0016 fusion variants", "format": "cell-based", "conditions": "with EDTA 0.5 mM; 10^6 cells/ml; 30 minutes at RT", "protocol": "Exponential growing Gram-negative bacterial cells (OD600 nm=0.6) were 100-fold diluted to a final density of about 10^6 cells/ml in 5 mM HEPES pH 7.4 and incubated for 30 minutes at room temperature without shaking with the different modified OBPgpLYS variants (in Elution Buffer in an end concentration of 1500 nM). After incubation cell suspensions and as a control untreated bacterial cells without any added modified OBPgpLYS variant were diluted three times (respectively 10^5-10^4-10^3 cells/ml) in 1× concentrated PBS buffer and 100 μl of each dilution was plated out on LB-medium. […] All samples were replicated in threefold. Averages +/− standard deviations are represented.\nThe purification of the fusion proteins and the antimicrobial activity assay was performed as described in Example 1."}, "[3]": {"test_system": "Listeria bacteria", "assay": "In vitro antibacterial activity of Ply511 fusion variants", "format": "cell-based", "conditions": "with EDTA 0.5 mM; 10^6 cells/ml; 30 minutes at RT"}, "[4]": {"test_system": "Streptococcus bacteria", "assay": "In vitro antibacterial activity of Cpl1 fusion variants", "format": "cell-based", "conditions": "with EDTA 0.5 mM; 10^6 cells/ml; 30 minutes at RT"}}, "data": [{"molecule": "PK2: polycationic peptide KRKKRKKRKRSKRKKRKKRK", "values": [{"measurement": "Antimicrobial activity against P. aeruginosa (relative inactivation)", "setting": "[1]", "value": "same antimicrobial activity against P. aeruginosa as SMAP-29 used in a concentration of 3 mmol/L"}, {"measurement": "Antimicrobial effects against P. aeruginosa (relative inactivation)", "setting": "[1]", "value": "no or only minor antimicrobial effects"}]}, {"molecule": "STM0016-Melittin: STM0016 fusion variant with one peptide stretch, Melittin", "values": [{"measurement": "Average log reduction, Salmonella", "setting": "[2]", "value": "+/− (+/−: <1 log)"}]}, {"molecule": "PK: polycationic peptide KRKKRKKRK", "values": [{"measurement": "Antimicrobial effects against P. aeruginosa (relative inactivation)", "setting": "[1]", "value": "no or only minor antimicrobial effects"}]}, {"molecule": "B1", "values": [{"measurement": "Average log reduction, Salmonella", "setting": "[2]", "value": "+ (+: 1 log)"}]}, {"molecule": "B2", "values": [{"measurement": "Average log reduction, Listeria", "setting": "[3]", "value": "++ (++: 2-3 log)"}]}, {"molecule": "B3", "values": [{"measurement": "Average log reduction, Streptococcus", "setting": "[4]", "value": "+++ (+++: 4 or more logs)"}]}, {"molecule": "B4", "values": [{"measurement": "Average log reduction, Listeria", "setting": "[3]", "value": "++ (++: 2-3 log)"}]}, {"molecule": "B5", "values": [{"measurement": "Average log reduction, Listeria", "setting": "[3]", "value": "+ (+: 1 log)"}]}, {"molecule": "B6", "values": [{"measurement": "Average log reduction, Listeria", "setting": "[3]", "value": "+++ (+++: 4 or more logs)"}]}]}
